Drawing on patent publication US20200171163A1 (Daiichi Sankyo, published 2020), this text covers binding result and Kd for 4 molecules.

Substitutions are numbered along the chain they refer to.

The chains are these.
T1: mouse CDH6 (on cells) (mouse, UniProt P97326 54-790)
T1 construct: also called mCDH6
T1 sequence: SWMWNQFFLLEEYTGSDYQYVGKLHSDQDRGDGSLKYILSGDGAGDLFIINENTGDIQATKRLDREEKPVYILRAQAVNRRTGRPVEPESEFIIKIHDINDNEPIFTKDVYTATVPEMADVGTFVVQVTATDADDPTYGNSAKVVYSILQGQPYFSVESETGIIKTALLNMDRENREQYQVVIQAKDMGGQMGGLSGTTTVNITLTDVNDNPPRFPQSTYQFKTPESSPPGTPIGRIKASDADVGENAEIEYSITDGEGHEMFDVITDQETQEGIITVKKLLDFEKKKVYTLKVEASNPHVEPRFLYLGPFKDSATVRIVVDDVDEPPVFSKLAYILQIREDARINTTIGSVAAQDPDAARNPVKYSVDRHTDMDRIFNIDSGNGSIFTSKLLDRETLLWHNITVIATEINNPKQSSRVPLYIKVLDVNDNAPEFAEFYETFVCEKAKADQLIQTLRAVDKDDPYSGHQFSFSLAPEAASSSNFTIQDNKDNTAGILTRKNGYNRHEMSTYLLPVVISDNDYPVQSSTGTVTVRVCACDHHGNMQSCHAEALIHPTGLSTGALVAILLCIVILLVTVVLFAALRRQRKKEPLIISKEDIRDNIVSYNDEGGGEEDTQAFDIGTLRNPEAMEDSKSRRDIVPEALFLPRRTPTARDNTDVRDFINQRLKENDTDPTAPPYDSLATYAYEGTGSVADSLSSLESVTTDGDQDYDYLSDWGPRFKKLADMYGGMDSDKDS

T2: Recombinant Human CDH6 Fc His chimera (R&D Systems, Inc.) (human, UniProt P55285 54-615)
T2 construct: Bought product; also called the antigen; human CDH6 antigen
T2 sequence: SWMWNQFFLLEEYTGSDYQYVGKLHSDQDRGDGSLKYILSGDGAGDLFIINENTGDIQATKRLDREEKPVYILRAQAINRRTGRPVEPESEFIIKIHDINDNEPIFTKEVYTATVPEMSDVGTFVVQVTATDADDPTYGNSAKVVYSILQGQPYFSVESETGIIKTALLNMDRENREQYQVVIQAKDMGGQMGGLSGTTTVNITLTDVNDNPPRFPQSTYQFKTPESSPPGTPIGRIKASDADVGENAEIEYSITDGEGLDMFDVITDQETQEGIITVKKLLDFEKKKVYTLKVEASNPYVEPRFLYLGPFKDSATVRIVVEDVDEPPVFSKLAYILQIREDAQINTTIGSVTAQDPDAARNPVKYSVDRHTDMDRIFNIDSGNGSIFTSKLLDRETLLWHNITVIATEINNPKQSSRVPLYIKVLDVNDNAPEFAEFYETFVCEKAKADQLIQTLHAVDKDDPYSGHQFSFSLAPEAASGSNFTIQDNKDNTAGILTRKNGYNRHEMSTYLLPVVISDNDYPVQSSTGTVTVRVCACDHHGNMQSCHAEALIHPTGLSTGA

B1: H02L02 antibody (antibody, human IgG1, kappa, V domains shown)
VH: EVQLVQSGAEVKKPGASVKVSCKASGYTFTRNFMHWVRQAPGQGLEWMGWIYPGDGETEYNQKFQGRVTITADRSTSTAYMELSSLRSEDTAVYFCARGVYGGFAGGYFDFWGQGTLVTVSS
VL: DIQMTQSPSSLSASVGDRVTITCKASQNIYKNLAWYQQKPGKAPKLLIYDANTLQTGVPSRFSGSGSGSDFTLTISSLQPEDFATYFCQQYYSGWAFGQGTKVEIKR
notes: Humanized IgG1/kappa (hH02 + hL02); also called humanized hG019 antibody H02L02
B2: H02L03 antibody (antibody, human IgG1, kappa, V domains shown)
VH: B1 VH
VL: B1 VL with P40L, K42E, A43G, S69T, F87Y
notes: Humanized IgG1/kappa (hH02 + hL03); also called humanized hG019 antibody H02L03
B3: H04L02 antibody (antibody, human IgG1, kappa, V domains shown)
VH: B1 VH with E1Q, V37I, N61A, I70L, F95Y
VL: B1 VL
notes: Humanized IgG1/kappa (hH04 + hL02); also called humanized hG019 antibody H04L02
B4: H01L02 antibody (antibody, human IgG1, kappa, V domains shown)
VH: B1 VH with N61A, R74T, F95Y
VL: B1 VL
notes: Humanized IgG1/kappa (hH01 + hL02); also called humanized hG019 antibody H01L02; labeled H01L02

The first assay concerns the target T1, mouse CDH6 (on cells). In words: flow cytometry, MFI vs antibody concentration; 293α cells transiently transfected with mCDH6; PE anti-human IgG Fc. The procedure:
The cells were cultured overnight under conditions of 37° C. and 5% CO₂, and thereafter, a cell suspension was prepared. […] Thereafter, the cells were suspended by the addition of each of the 4 humanized hG019 antibodies (clone Nos: H01L02, H02L02, H02L03 and H04L02), which had been prepared in Example 5)-5-3, or human IgG1 control (Calbiochem). The cells were left standing at 4° C. for 1 hour. The cells were washed twice with PBS supplemented with 5% FBS, and then suspended by the addition of anti-human IgG, Fc(gamma) PE goat F(ab′) (Jackson ImmunoResearch Laboratories, Inc.) that had been 500-fold diluted with PBS supplemented with 5% FBS. The cells were left standing at 4° C. for 1 hour. The cells were washed twice with PBS supplemented with 5% FBS, followed by detection using a flow cytometer (Canto II; BD Biosciences). The data was analyzed using FlowJo (Tree Star, Inc.). In FIGS. 6-1 and 6-2, the abscissa depicts antibody concentration, and the ordinate depicts the amount of the antibody bound based on mean fluorescence intensity. As shown in FIGS. 6-1 and 6-2, the human IgG1 control as a negative control binds to none of the CDH6-transfected cells. The 4 humanized hG019 antibodies (clone Nos: H01L02, H02L02, H02L03 and H04L02) bind to human CDH6 and cynomolgus monkey CDH6, but bind to neither mouse nor rat CDH6. None of the antibodies bind to the cells transfected with the empty vector pcDNA3.1 as a negative control.
Turning to B1, the binding result is recorded as “no binding (tested: about 4 nM)”.
Consider B2, for which the binding result was “no binding (tested: about 4 nM)”.
On to B3, for which the binding result is “no binding (tested: about 4 nM)”.
The same measure, in the same setting: the same measure for B4: “no binding (tested: about 4 nM)”.

Another assay has as its target T2, Recombinant Human CDH6 Fc His chimera …. In words: SPR (Biacore T200), antigen captured by anti-His antibody, antibody as analyte, steady state affinity model. The method, then:
The dissociation constant between the antibody and the antigen (Recombinant Human CDH6 Fc His chimera, R&D Systems, Inc.) was measured by using Biacore T200 (GE Healthcare Biosciences Corp.), according to a capture method, which comprises capturing the antigen as a ligand with the immobilized anti-His antibody and then measuring the dissociation constant using an antibody as an analyte. Approximately 1000 RU of the anti-histidine antibody (His capture kit, GE Healthcare Biosciences Corp.) was covalently bound to sensor chip CM5 (GE Healthcare Biosciences Corp.) by the amine coupling method. The antibody was also immobilized onto reference cells in the same manner as above. HBS-P+ (10 mM HEPES pH 7.4, 0.15 M NaCl, 0.05% Surfactant P20) supplemented with 1 mM CaCl₂ was used as a running buffer. The antigen was added onto the anti-histidine antibody-immobilized chip for 60 seconds, and a dilution series solution (0.391 to 100 nM) of the antibody was then added at a flow rate of 30 μl/min for 300 seconds. Subsequently, the dissociation phase was monitored for 600 seconds. As a regeneration solution, a glycine solution (pH 1.5) supplemented with 5 M MgCl2 was added twice at a flow rate of 10 μl/min for 30 seconds. A Steady State Affinity model in analysis software (BIAevaluation software, version 4.1) was used in data analysis, and the dissociation constant (KD) was calculated.
Take B1: the equilibrium dissociation constant (Kd) was found to be 1.1 nM.
In the case of B2, the Kd amounted to 1.4 nM.
B3: the Kd was 1.1 nM.
Consider B4, for which the Kd was determined as 1.5 nM.
